We go through two molecules from PMC10415273.

Assay [1] has as its target T1, endogenous IRF3 (human (endogenous in HEK293)), Q14653.
T1 chain: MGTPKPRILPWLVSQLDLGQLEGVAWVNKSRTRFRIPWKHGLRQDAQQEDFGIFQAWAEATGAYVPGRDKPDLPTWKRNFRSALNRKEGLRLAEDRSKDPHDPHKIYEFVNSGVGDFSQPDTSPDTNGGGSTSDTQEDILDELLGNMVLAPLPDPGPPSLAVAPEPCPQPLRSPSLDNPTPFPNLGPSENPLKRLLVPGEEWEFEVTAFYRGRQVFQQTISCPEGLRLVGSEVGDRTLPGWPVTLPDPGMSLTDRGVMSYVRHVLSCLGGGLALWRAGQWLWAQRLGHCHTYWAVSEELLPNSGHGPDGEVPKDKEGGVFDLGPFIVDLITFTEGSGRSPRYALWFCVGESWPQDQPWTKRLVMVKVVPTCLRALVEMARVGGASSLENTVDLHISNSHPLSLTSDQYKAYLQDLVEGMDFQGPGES
As to the kind of experiment: native gel or EMSA; S5 fractions of stimulated cells on 9% native PAGE (0.4% Doc-Na in running buffer, 4 °C); immunoblot of IRF3. The following applies: remark: other sources report otherwise. Background: Mobility shift assays separate free from complexed probe on a gel.

In assay [2] the target is T2, endogenous mouse IRF3 (mouse (endogenous in peritoneal macrophages)), P70671.
T2 chain: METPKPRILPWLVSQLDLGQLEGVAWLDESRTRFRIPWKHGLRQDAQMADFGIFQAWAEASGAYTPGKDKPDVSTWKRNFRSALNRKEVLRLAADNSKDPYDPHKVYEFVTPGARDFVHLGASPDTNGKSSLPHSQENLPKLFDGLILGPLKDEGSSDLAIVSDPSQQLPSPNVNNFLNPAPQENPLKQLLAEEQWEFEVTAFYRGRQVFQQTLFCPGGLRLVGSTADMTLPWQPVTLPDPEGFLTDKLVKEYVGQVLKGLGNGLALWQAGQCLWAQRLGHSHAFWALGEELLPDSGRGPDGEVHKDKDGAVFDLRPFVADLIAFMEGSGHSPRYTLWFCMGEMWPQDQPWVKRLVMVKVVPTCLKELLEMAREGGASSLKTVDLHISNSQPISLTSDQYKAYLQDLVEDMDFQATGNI
The description is as above. To be noted: remark: other sources report otherwise.

B1: endogenous IRF3, Q14653 1-427 (natural protein)
chain: T1 chain
For B1, the stoichiometry N in assay [1] was determined as 2.

B2: endogenous mouse IRF3, P70671 1-419 (natural protein)
chain: T2 chain
As to B2, in assay [2], the stoichiometry N was found to be 2.

By stoichiometry N is commonly meant the number of molecules, sites or subunits per partner or assembly.
